Experimental data reported in publication PMC4164784, “4E-BPs require non-canonical 4E-binding motifs and a lateral surface of eIF4E to repress translation” (Nature Communications, 2014).
No end group written: not given here.

T1: Dm eIF4E (residues 69–248, WT) (Drosophila melanogaster, UniProt P48598)
T1 construct: The truncated His6-eIF4E (residues 69–248) that was used in the ITC experiments; His6 (N, cleaved yes); made in house; host or cells: E. coli BL21 Star (DE3)
T1 sequence (P48598 69-248 isoform P48598-2): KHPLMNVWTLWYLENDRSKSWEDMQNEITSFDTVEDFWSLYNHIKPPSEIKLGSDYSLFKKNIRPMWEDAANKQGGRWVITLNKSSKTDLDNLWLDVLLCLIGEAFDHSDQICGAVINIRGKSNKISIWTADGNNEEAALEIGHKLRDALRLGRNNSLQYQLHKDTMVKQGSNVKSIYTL

T2: eIF4E (residues 69–248), purified (Drosophila melanogaster, UniProt P48598-2 69-248)
T2 construct: eIF4E, Drosophila melanogaster, residues 69–248; the methods say the tag was cleaved with HRV3C; also called truncated eIF4E; eIF4E trunc; not shown: His6, N-terminal, cleaved
T2 sequence (looked up): T1 sequence (P48598 69-248 isoform P48598-2)

B1: Thor R,G,T: Thor R81A, G82A, T83A (protein, UniProt Q9XZ56 1-117, looked up, variant R81A G82A T83A)
Eukaryotic translation …: MSASPTARQAITQALPMITRKVVISDPIQMPEVYSSTPGGTLYSTTPGGTKLIYERAFMKNLRGSPLSQTPPSNVPSCLLAAAPRTPFRKCVPVPTELIKQTKSLKIEDQEQFQLDL

Assays:
[1] = target: T1, Dm eIF4E (residues 69–248, WT); experiment: ITC, binding to eIF4E (WT, residues 69–248); conditions: for TΔS / ΔG / Molar ratio / ΔH: eIF4E WT (69–248), pH 7.0, nb = no binding; for TΔS / ΔG / KD / Molar ratio / ΔH: 20 °C; for KD: VP-ITC, 20 mM Na-phosphate (pH 7.0), 150 mM NaCl, GB1-fused peptides (C+NC 10 μM, C 50 μM, L+NC 100 μM CUP or 200 μM Thor and 4E-T, eIF4G 20 μM) into eIF4E WT 1–20 μM, one-site model, each experiment repeated twice, nb = no binding
Method: Unless indicated otherwise, all the proteins were expressed in E. coli BL21 Star (DE3) cells (Invitrogen) that were grown in LB medium overnight at 20 °C. The lysis buffers were supplemented with DNaseI (5 μg ml^−1), lysozyme (1 mg ml^−1) and protease inhibitor cocktail (Roche). The truncated His6-eIF4E (residues 69–248) that was used in the ITC experiments and in Figs 2c and 5b was purified in lysis buffer containing 50 mM HEPES (pH 7.2), 300 mM NaCl, 20 mM imidazole and 2 mM β-mercaptoethanol using Ni^2+-affinity chromatography (HisTrap HP 5 ml, GE Healthcare) and eluted with a gradient of 20–500 mM imidazole. After the cleavage of the His6-tag with HRV3C protease (homemade), the protein was further purified using a heparin column (HiTrap Heparin HP 5 ml, GE Healthcare), followed by size exclusion chromatography (Superdex 75 16/60, GE Healthcare) in 20 mM Na-phosphate (pH 7.0), 300 mM NaCl and 2 mM dithiothreitol (DTT).
For the ITC measurements and the competition assays shown in Figs 4 and 5d–g, the 4E-BP peptides corresponding to the canonical (C) motifs, the combined (C+NC) motifs or L+NC were expressed with an HRV3C cleavable N-terminal MBP-tag and a non-cleavable C-terminal GB1 domain. The cells were lysed by sonication in lysis buffer containing 50 mM HEPES (pH 7.2), 300 mM NaCl and 2 mM DTT. The proteins were purified from the cleared lysates using amylose resin (New England Biolabs) followed by the cleavage of the MBP tag with HRV3C protease overnight at 4 °C. The proteins were further purified by size exclusion chromatography (Superdex 75 16/60, GE Healthcare) in 20 mM Na-phosphate (pH 7.0), 300 mM NaCl and 2 mM DTT. For the eIF4G fragment (residues 578–650) the MBP was removed after cleavage with TEV protease through an additional anion exchange chromatography (HiTrap Q HP 5 ml, GE Healthcare) before the final gel filtration.
The ITC experiments were performed using a VP-ITC microcalorimeter (MicroCal) at 20 °C. The solution of eIF4E (residues 69–248, WT or mutant: 1–20 μM) in the calorimetric cell was titrated with tenfold concentrated solutions of GB1-stabilized peptides corresponding to 4E-BPs C+NC (10 μM), C (50 μM), L+NC (100 μM CUP, 200 μM Thor and 4E-T) or eIF4G (residues 578–650, 20 μM) that were dissolved in the same buffer (20 mM Na-phosphate (pH 7.0) and 150 mM NaCl). The titration experiments consisted of an initial injection of 2 μl followed by 28 injections of 10 μl at an interval of 240 s. Each binding experiment was repeated twice. The thermodynamic parameters were estimated using a one-site binding model (Origin version 7.0), whereby the datapoint of the first injection was removed for the analysis.
(d) minimal regions for binding to eIF4E (wild-type (WT), residues 69–248). The top panels represent the raw data (μcal sec−1) whereas the bottom panels show the integrated data (kcal mole−1 of injectant) of heat changes that were best-fitted using a one-site binding model. The thermodynamic parameters correspond to heat changes that were detected when 4E-BPs (10 µM) or eIF4G (20 µM) were injected into the calorimetric cell (1.4 mL) containing 1 µM (a,b,c) or 2 µM (d) eIF4E.
Supplementary Figure 4. Thermodynamic parameters for the interaction of eIF4E with 4E-BP peptides. (a–f) ITC profiles for the interaction of eIF4E (WT, residues 69-248) and CUP (a,d), Thor (b,e) and 4E-T (c,f) peptides containing only the canonical motifs (a–c) or the L+NC regions (d–f). The measurements were performed as described in Supplementary
Fig. 3. The solutions contained the peptides corresponding to the canonical motifs (50 µM) or the L+NC regions (100 µM for CUP and 200 µM for Thor and 4E-T). The eIF4E concentration in the calorimetric cell was 5 µM (for the C peptides), 10 µM (for CUP L+NC) and 20 µM (for Thor and 4E-T L+NC peptides).
(1 picture or pasted object on this page, not shown here)

[2] = test system: endogenous eIF4E and HA-tagged 4E-BPs in S2 cells; experiment: Immunofluorescence localization in S2 cells; assay type: cell-based, Drosophila melanogaster; conditions: −LMB
Method: S2 cells expressing HA-tagged versions of CUP, Thor and 4E-T or the indicated mutants were treated with Leptomycin B (100 nM; Sigma) or methanol as a control for 12 h. After the LMB treatment, the cells were allowed to adhere to poly-D-lysine–coated coverslips for 15 min and were fixed with 2% paraformaldehyde for 10 min. The cells were then permeabilized with 0.1% Triton X-100 in PBS (10 min) and stained with affinity-purified monoclonal anti-HA (Covance 1:1,000) and polyclonal anti-eIF4E (1:2,000) antibodies in PBS containing 1% BSA for 1 h. Alexa Fluor 594-labeled goat anti-rabbit and 488-labeled anti-mouse antibodies (Invitrogen) were used at dilutions of 1:1,000 and 1:2,000, respectively. The cells were mounted using Fluoromount-G (Southern Biotech). The images were acquired at room temperature using a confocal microscope (TCS SP2; Leica) that was fitted with a Plan-Apochromat × 100 NA 1.40 oil immersion objective and a series of three photomultipliers (Hamamatsu Photonics) controlled with the Leica confocal software (version 2.61). The images were prepared using Photoshop (Adobe). […]
Thor) independent experiments. […] Confocal fluorescent […]
micrographs of fixed S2 cells expressing HA-4E-T and GFP-Tral. The localization of HA-4E-T was determined by indirect immunofluorescence using an anti-HA antibody. The merged pictures show the HA signal in red and the GFP-Tral signal in green. Bar: 5 μm.

[3] = target: T2, eIF4E (residues 69–248), purified; experiment: ITC; VP-ITC, 20 °C; eIF4E (69–248, WT or mutant, 1–20 μM) in the cell, tenfold concentrated GB1-stabilized peptides titrated in; 20 mM Na-phosphate pH 7.0, 150 mM NaCl; one-site binding model; conditions: both partners purified
endogenous eIF4E = experiment: Coimmunoprecipitation / m7GTP pull-down with endogenous eIF4E in S2 cell lysates; assay type: cell-based, Drosophila melanogaster; conditions: western blot
Method: The coimmunoprecipitations assays were performed as previously described. For the pull downs using m^7GTP beads, 25 μl of immobilized γ-aminophenyl-m^7GTP (C10-spacer—Jena Bioscience) beads was added to the cell lysates and the mixtures were rotated for 1 h at 4 °C. The beads were washed three times with NET buffer (50 mM Tris (pH 7.4), 150 mM NaCl, 1 mM EDTA and 0.1% Triton X-100). The bound proteins were eluted with 2 × SDS–polyacrylamide gel electrophoresis (SDS–PAGE) sample buffer and analyzed by western blotting (WB). All of the WB experiments were developed with the ECL western blotting detection system (GE Healthcare) as recommended by the manufacturer. The antibodies used in this study are listed in Supplementary Table 2.
Thor and 4E-T) or HA-eIF4G and endogenous eIF4E in S2 cell lysates. The proteins were immunoprecipitated using a polyclonal anti-eIF4E antibody (α-4E). The pre-immune (Pre-I) serum and an HA-tagged version of MBP served as negative controls. The inputs (1%) and immunoprecipitates (10%) were analyzed by western blotting using anti-HA and anti-eIF4E antibodies. (b,c) The interaction of HA-tagged full length 4E-BPs (CUP, Thor and 4E-T) and eIF4G with endogenous eIF4E was analyzed by coimmunoprecipitation using anti-HA antibodies (b) or by pull-down using m7GTP-Sepharose beads (c). HA-MBP served as a negative control. The inputs (10%) and immunoprecipitates (30%) were analyzed by western blotting using anti-HA and anti-eIF4E antibodies. (d) Western blot showing the interaction of HA-Thor (full-length either wild-type or mutants) with endogenous eIF4E in S2 cells. The proteins were immunoprecipitated using anti-HA antibodies and analyzed as described in (b,c). (e) Western blot showing the interaction of HA-4E-T (residues 1–511, wild-type or mutants) with endogenous eIF4E. The proteins were immunoprecipitated using anti-HA antibodies and analyzed as described in (b,c). The size markers (kDa) are shown to the right of each panel. Mutants are described in Supplementary Table 1.

Row | Molecule | TΔS [1] | ΔG [1] | Kd [3] [nM] | dH [3] [kcal/mol] | stoichiometry N [3] | other results
1 | CUP L+NC: CUP residues 342–376, linker+non-canonical, C-terminal GB1 (ALMHRSKESFVMPRIATCDDIELEGRLRRMNIWRT-GB1; UniProt Q9VMA3 342-376, looked up, fragment) | -9.1 kcal/mol | -9.38 kcal/mol |  |  |  | KD of L+NC relative to C motif (in words) ([1]; eIF4E WT): comparable to that of the C motif; binding thermodynamics (in words) ([1]; eIF4E WT): enthalpically driven; interaction with eIF4E (in words) ([1]; eIF4E WT, L+NC peptides): interacted with eIF4E at detectable levels
2 | 4E-T NC: 4E-T residues 31–44, non-canonical motif |  |  |  |  |  | localization of endogenous eIF4E (in words) ([2]; S2 cells overexpressing 4E-BP or mutant): the number of eIF4E-positive P-bodies was reduced; localization of the 4E-BP (in words) ([2]; S2 cells, steady-state): still localized to P-bodies
3 | 4E-T L+NC: 4E-T residues 22–44, linker+non-canonical | nb | nb |  |  |  | KD [1]: nb; Molar ratio [1]: nb; ΔH [1]: nb
4 | Thor L+NC: Thor residues 64–83, linker+non-canonical | nb | nb |  |  |  | KD [1]: nb; Molar ratio [1]: nb; ΔH [1]: nb
5 | TKLIYERAFMKNLR (domain or fragment) [Thor C peptide fused C-terminally to GB1] |  |  | 2260 | -12.1 ± 2.8 | 1.06 ± 0.01 | 
6 | B1 |  |  |  |  |  | interaction with endogenous eIF4E (in words) (endogenous eIF4E): ineffective
7 | KSYTRSRLMDIRNGMFN (domain or fragment) [CUP C peptide fused C-terminally to GB1] |  |  | 160 | -16.84 ± 0.04 | 1.01 ± 0.01 | 
8 | ALMHRSKESFVMPRIATCDDIELEGRLRRMNIWRT (domain or fragment) [CUP L+NC peptide fused C-terminally to GB1] |  |  | 103 | -18.5 ± 0.2 | 0.98 ± 0.01 | 
9 | RYSKVDLLALRYE (domain or fragment) [4E-T C peptide fused C-terminally to GB1] |  |  | 16 | -18.6 ± 0.7 | 0.95 ± 0.01 | 
